Source: patent publication US20190111149A1 (MEDITOPE BIOSCIENCES, published 2019)

B1: Peptide 20: Ac-…XRCGGGK with Duostatin; -Glu-vc-PAB-Duostatin-; X=(S)-2-amino-6-(3-methyl-3H-diazirin-3-yl) hexanoic acid (peptide)
peptide: not shown
modifications: N-terminal acetyl; X at position 10 = (S)-2-amino-6-(3-methyl-3H-diazirin-3-yl)hexanoic acid; -Glu-vc-PAB-Duostatin conjugated
B2: Peptide 19: Ac-…XRCGGGK with Duostatin; -Glu-vc-PAB-Duostatin-; X = (S)-2-amino-5-(3-methyl-3H-diazirin-3-yl) pentanoic acid (peptide)
peptide: not shown
modifications: N-terminal acetyl; X10 = (S)-2-amino-5-(3-methyl-3H-diazirin-3-yl)pentanoic acid; Glu-vc-PAB-Duostatin conjugated
notes: also called Peptide 19 (with Duostatin); Peptide 19 (with 1 Duostatin per peptide, DAR 2)
B3: Peptide 19: Ac-…XRCGGGK with Duostatin; -Glu-vc-PAB-Duostatin-; X=(S)-2-amino-5-(3-methyl-3H-diazirin-3-yl) pentanoic acid (peptide)
peptide: not shown
modifications: N-terminal acetyl; X at position 10 = (S)-2-amino-5-(3-methyl-3H-diazirin-3-yl)pentanoic acid; -Glu-vc-PAB-Duostatin conjugated
notes: 5-carbon chain at position 10

Columns and labels:
[1] = biological target: T1, Meditope enabled Lintuzumab; test: BLI Octet, antibody on anti-human Fc tip, peptide 333 nM
T1 construct: also called Lintuzumab enabled
T1 sequence (VH, as listed by the source, chain 1 of 2): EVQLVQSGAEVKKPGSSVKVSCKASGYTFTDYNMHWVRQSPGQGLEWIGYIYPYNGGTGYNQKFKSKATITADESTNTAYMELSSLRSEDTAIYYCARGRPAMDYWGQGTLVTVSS
T1 sequence (VL, as listed by the source, chain 2 of 2): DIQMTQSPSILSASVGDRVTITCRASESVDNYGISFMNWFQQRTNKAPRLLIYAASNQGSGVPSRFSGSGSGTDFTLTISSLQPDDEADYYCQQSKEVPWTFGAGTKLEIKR

[2] = biological target: T1, Meditope enabled Lintuzumab; test: BLI Octet, antibody on anti-human Fc tip, peptide 37 nM
[3] = biological target: T1, Meditope enabled Lintuzumab; test: BLI Octet, antibody on anti-human Fc tip, peptide 1000 nM; Peptide 20
[4] = biological target: T1, Meditope enabled Lintuzumab; test: BLI Octet, antibody on anti-human Fc tip, peptide 111 nM
[5] = biological target: T1, Meditope enabled Lintuzumab; test: BLI Octet, antibody on anti-human Fc tip, peptide 12 nM
[6] = biological target: T2, Photo optimized trastuzumab; meditope enabled (Tmab); test: BLI Octet, antibody on anti-human Fc tips
T2 construct: also called photo-optimized trastuzumab V2; photo-optimized meditope enabled Trastuzumab variant 2
T2 sequence (heavy, as listed by the source, chain 1 of 2): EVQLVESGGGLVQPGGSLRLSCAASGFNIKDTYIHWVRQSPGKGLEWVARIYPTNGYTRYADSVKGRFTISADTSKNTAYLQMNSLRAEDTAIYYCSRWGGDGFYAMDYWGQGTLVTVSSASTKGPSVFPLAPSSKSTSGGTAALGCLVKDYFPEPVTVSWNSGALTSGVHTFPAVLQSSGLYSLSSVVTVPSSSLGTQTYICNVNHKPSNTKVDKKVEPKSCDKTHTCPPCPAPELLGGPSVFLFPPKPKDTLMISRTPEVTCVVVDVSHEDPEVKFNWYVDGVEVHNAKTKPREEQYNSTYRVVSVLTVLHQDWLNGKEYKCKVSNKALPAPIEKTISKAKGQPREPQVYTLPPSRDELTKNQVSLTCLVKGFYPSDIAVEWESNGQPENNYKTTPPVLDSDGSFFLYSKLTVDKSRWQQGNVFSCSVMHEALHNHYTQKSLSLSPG
T2 sequence (light, as listed by the source, chain 2 of 2): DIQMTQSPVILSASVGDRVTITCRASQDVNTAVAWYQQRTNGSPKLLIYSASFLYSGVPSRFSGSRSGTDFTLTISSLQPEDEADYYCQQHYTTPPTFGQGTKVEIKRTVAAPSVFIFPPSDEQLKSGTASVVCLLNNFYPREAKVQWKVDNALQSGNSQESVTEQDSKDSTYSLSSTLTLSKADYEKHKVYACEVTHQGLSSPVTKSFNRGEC

[7] = biological target: T3, Meditope enabled Trastuzumab; test: BLI Octet, antibody on anti-human Fc tips
T3 construct: also called Trastuzumab enabled
T3 sequence (heavy, as listed by the source, chain 1 of 2): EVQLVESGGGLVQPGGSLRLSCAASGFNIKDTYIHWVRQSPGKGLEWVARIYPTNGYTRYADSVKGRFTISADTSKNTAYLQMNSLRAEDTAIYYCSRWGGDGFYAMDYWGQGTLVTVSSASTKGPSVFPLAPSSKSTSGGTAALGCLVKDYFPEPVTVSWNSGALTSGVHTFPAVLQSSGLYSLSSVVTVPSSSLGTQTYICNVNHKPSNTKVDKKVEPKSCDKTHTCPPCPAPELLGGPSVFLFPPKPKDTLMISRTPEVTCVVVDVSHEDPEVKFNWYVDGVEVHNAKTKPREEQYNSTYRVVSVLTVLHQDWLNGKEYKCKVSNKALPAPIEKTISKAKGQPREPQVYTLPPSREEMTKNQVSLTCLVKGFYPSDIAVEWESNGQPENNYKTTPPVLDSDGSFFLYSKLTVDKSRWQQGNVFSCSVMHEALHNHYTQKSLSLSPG
T3 sequence (light, as listed by the source, chain 2 of 2): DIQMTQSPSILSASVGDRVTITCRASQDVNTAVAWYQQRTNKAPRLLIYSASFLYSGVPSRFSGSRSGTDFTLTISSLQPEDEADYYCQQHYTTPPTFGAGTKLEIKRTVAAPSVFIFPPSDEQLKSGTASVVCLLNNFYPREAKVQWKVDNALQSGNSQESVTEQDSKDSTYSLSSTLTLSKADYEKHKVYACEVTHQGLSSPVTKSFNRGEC

MBI_CD19_1; (SAR3419) = test: BLI Octet, antibody on anti-human Fc tips
Chain of MBI_CD19_1; (SAR3419) (heavy, as listed by the source, chain 1 of 2): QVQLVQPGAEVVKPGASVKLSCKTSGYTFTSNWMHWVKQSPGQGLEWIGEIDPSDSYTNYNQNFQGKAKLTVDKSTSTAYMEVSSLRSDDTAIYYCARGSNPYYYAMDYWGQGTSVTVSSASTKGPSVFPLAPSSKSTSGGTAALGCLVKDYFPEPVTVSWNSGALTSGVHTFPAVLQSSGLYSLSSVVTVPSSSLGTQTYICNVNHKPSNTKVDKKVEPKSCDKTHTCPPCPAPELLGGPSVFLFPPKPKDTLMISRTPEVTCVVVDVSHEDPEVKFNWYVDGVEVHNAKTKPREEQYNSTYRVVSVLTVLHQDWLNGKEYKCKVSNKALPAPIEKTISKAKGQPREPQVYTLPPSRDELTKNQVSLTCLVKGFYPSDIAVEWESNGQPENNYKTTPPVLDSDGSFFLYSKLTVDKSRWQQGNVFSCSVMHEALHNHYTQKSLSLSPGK
Chain of MBI_CD19_1; (SAR3419) (light, as listed by the source, chain 2 of 2): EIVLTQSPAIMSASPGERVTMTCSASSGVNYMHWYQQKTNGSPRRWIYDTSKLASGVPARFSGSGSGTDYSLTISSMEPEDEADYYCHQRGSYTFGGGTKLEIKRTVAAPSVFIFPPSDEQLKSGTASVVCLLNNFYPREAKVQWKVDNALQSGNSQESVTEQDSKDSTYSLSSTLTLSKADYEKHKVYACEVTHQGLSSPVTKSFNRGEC

MBI_CD19_2; (MOR208) = test: BLI Octet, antibody on anti-human Fc tips
Chain of MBI_CD19_2; (MOR208) (heavy, as listed by the source, chain 1 of 2): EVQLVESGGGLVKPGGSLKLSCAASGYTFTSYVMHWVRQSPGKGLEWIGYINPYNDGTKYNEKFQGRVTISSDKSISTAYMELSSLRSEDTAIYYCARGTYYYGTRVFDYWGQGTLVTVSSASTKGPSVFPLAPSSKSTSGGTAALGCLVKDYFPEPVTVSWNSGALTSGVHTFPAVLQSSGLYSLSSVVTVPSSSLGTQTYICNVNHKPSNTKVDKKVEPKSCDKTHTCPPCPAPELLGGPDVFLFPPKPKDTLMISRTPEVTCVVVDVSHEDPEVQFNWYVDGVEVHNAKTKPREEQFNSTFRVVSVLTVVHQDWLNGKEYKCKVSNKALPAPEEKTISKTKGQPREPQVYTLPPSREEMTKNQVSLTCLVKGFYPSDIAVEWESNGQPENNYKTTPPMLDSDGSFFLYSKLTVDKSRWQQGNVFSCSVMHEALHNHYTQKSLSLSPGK
Chain of MBI_CD19_2; (MOR208) (light, as listed by the source, chain 2 of 2): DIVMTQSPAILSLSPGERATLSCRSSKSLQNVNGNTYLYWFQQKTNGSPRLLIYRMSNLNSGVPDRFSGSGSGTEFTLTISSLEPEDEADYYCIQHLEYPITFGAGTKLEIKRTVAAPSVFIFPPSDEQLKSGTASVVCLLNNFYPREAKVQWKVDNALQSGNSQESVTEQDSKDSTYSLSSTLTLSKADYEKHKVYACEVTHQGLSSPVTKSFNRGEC

[8] = biological target: T4, Meditope enabled Clivatuzumab; test: BLI Octet, antibody on anti-human Fc tips
T4 construct: also called Clivatuzumab enabled
T4 sequence (heavy, as listed by the source, chain 1 of 2): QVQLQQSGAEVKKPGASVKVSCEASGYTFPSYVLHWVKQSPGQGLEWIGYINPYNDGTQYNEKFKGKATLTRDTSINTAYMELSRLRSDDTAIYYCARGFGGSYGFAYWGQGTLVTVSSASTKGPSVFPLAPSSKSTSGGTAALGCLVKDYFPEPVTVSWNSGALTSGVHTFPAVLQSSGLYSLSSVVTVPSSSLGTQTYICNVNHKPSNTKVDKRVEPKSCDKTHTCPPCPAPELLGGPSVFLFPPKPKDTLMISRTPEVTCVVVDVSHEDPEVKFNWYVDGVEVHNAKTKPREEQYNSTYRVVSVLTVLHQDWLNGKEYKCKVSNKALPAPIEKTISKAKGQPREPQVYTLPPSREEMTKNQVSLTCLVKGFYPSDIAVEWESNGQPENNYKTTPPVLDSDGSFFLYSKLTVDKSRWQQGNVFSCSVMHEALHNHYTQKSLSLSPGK
T4 sequence (light, as listed by the source, chain 2 of 2): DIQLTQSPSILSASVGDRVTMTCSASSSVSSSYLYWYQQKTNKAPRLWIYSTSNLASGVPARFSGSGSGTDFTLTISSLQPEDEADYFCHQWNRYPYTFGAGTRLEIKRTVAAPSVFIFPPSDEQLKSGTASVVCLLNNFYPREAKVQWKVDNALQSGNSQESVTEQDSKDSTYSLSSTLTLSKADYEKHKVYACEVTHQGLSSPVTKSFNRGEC

[9] = biological target: T5, Meditope enabled Ocaratuzumab; test: BLI Octet, antibody on anti-human Fc tips
T5 construct: also called Ocaratuzumab enabled
T5 sequence (heavy, as listed by the source, chain 1 of 2): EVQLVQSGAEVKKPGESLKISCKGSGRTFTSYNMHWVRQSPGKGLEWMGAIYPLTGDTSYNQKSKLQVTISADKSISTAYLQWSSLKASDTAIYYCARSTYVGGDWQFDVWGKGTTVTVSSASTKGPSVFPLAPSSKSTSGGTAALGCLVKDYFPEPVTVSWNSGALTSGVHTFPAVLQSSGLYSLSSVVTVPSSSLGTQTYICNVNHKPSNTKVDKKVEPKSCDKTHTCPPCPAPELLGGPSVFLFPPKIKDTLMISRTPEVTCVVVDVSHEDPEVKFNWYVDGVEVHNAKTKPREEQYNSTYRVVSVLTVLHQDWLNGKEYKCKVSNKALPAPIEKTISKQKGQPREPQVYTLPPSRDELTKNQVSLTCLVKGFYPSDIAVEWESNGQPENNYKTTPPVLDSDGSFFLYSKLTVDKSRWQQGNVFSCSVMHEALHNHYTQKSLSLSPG
T5 sequence (light, as listed by the source, chain 2 of 2): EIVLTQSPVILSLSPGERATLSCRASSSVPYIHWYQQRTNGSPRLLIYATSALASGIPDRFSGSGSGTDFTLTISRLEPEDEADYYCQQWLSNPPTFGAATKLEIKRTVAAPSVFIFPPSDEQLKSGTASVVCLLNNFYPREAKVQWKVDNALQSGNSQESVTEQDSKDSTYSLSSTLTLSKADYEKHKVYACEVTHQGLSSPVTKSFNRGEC

[10] = biological target: T2, Photo optimized trastuzumab; meditope …; test: BLI Octet, antibody on anti-human Fc tips; Peptide 19, Table 9
[11] = biological target: T2, Photo optimized trastuzumab; meditope …; test: BLI Octet, antibody on anti-human Fc tips; remark: listed apart in the source
[12] = biological target: T6, Meditope enabled Panitumumab; test: BLI Octet, antibody on anti-human Fc tip, peptide 37 nM
T6 construct: also called Panitumumab enabled
T6 sequence (VH, as listed by the source, chain 1 of 2): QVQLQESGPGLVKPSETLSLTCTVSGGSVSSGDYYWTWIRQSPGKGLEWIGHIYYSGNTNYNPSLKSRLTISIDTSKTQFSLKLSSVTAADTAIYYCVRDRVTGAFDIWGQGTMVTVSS
T6 sequence (VL, as listed by the source, chain 2 of 2): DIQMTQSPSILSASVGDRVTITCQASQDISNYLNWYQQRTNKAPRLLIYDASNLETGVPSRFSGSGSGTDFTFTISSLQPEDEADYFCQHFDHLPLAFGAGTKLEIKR

[13] = biological target: T6, Meditope enabled Panitumumab; test: BLI Octet, antibody on anti-human Fc tip, peptide 12 nM

Binder | Kd [1] [nM] | Kd [2] [nM] | Kd [3] [nM] | Kd [4] [nM] | Kd [5] [nM] | Kd [6] [nM] | Kd [7] [nM] | binding result (MBI_CD19_1; (SAR3419)) | Kd (MBI_CD19_2; (MOR208)) [nM] | binding result [8] | binding result [9] | Kd [10] [nM] | Kd [11] [nM] | Kd [12] [nM] | Kd [13] [nM]
B1 | 6550 | 1210 | 19800 | 3340 | 246 |  |  |  |  |  |  |  |  |  | 
B2 |  |  |  |  |  | 33.8 | 149 | no binding | 33.8 | no binding | no binding | 120 | 42.8 |  | 
B3 | 1170 | 5680 |  | 3000 | 55.5 |  |  |  |  |  |  |  |  | < 0.001 | < 0.001
